First the molecules themselves.
B1: hzG2D-33: humanized G2D clone; "G2D VL region ... of clones 1-16, 19-21, 26-29, 31, and 33 ... grafted into the human germline sequence VKI-L1 with JK4" (antibody, V domains shown)
VH: QVQLVQSGAEVKKPGASVKVSCKASGYTFTGYYMHWVRQAPGQRLEWMGRINPNNGATNYNQNFKDKASLTVDTSASTAYMELSSLTSEDTAVYYCTSVNFYYWGQGTTVTVSS
VL: DIQMTQSPSSLSASVGDRVTITCKASQVINSYLSWFQQKPGKAPKSLIYRANTLVDGVPSRFSGSGSGTDFTLTISSLQPEDFATYYCLQYAEFPYTFGGGTKVEIK
modifications: Synthetic sequence hzG2.51D VH R66K, V67A, T68S, I69L, R71V, R84T, A93T, R94S; Synthetic sequence hzG2D VLa
B2: hzG2D-2: humanized G2D clone; "G2D VL region ... of clones 1-16, 19-21, 26-29, 31, and 33 ... grafted into the human germline sequence VKI-L1 with JK4" (antibody, V domains shown)
VH: QVQLVQSGAEVKKPGASVKVSCKASGYSFTGYYMHWVRQAPGQRLEWMGRINPNNGATNYNQNFKDRVTITRDTSASTAYMELSSLRSEDTAVYYCARVNFYYWGQGTTLTVSS
VL: DIQMTQSPSSLSASVGDRVTITCKASQVINSYLSWFQQKPGKAPKSLIYRANTLVDGVPSRFSGSGSGTDFTLTISSLQPEDFATYYCLQYAEFPYTFGGGTKVEIK
modifications: Synthetic sequence hzG2.1D VH T28S, V109L; Synthetic sequence hzG2D VLa
B3: hzG2D-34: humanized G2D clone; "G2D VL region ... of clones 22, 23, 30, 32, and 34-37 ... grafted into the human germline sequence VKI-O2 with JK4" (antibody, V domains shown)
VH: QVQLVQSGAEVKKPGASVKVSCKASGYTFTGYYMHWVRQAPGQRLEWMGRINPNNGATNYNQNFKDKASLTVDTSASTAYMELSSLTSEDTAVYYCTSVNFYYWGQGTTVTVSS
VL: DIQMTQSPSSLSASVGDRVTITCKASQVINSYLSWYQQKPGKAPKLLIYRANTLVDGVPSRFSGSGSGTDFTLTISSLQPEDFATYYCLQYAEFPYTFGGGTKVEIK
modifications: Synthetic sequence hzG2.51D VH R66K, V67A, T68S, I69L, R71V, R84T, A93T, R94S; Synthetic sequence hzG2D VLb
B4: hzG2D-3: humanized G2D clone; "G2D VL region ... of clones 1-16, 19-21, 26-29, 31, and 33 ... grafted into the human germline sequence VKI-L1 with JK4" (antibody, V domains shown)
VH: QVQLVQSGAEVKKPGASVKVSCKASGYTFTGYYMHWVRQAPGQRLEWMGRINPNNGATNYNQNFKDRVTITRDTSASTAYMELSSLRSEDTAVYYCTSVNFYYWGQGTTLTVSS
VL: DIQMTQSPSSLSASVGDRVTITCKASQVINSYLSWFQQKPGKAPKSLIYRANTLVDGVPSRFSGSGSGTDFTLTISSLQPEDFATYYCLQYAEFPYTFGGGTKVEIK
modifications: Synthetic sequence hzG2.45D VH A93T, R94S, V109L; Synthetic sequence hzG2D VLa

The assay deals with T1, HepG2 cells (which express ASGR1) (Homo sapiens, UniProt P07306).
T1 construct: endogenous in cells; host or cells: HepG2
T1 sequence (P07306 1-291): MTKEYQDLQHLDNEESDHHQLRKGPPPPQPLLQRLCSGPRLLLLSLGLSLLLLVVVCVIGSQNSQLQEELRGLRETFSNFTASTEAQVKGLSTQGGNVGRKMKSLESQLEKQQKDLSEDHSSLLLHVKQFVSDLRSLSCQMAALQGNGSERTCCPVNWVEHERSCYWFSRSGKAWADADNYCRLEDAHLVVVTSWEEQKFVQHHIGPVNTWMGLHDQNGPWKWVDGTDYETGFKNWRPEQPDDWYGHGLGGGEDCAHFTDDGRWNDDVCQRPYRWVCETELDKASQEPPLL
Description: Guava HepG2 cell binding screen of humanized anti-ASGR1 clones. Further details: unit not given here. To be noted: humanized G2D clones (Table 5); two numbers per cell, not explained. The method, then: Hybridomas producing monoclonal antibodies (mAbs) specific for human ASGR1 were prepared from Balb/C mice immunized with ASGR1-AviHis at a service provider using their propriety protocol. Antibody heavy and light chain sequences were obtained, amplified, and cloned. Clone supernatants containing the expressed mAbs were screened for binding to a human ASGR1-IgG1Fc fusion protein, and those with a positive signal as measured by enzyme linked immunosorbent assay (ELISA) were screened for cell binding on HepG2 cells (which express ASGR1).
As to B1, the “Guava HepG2 Screen” value is reported as 164/85.

As for B2, the “Guava HepG2 Screen” value was 38/20.

Consider B3, for which the “Guava HepG2 Screen” value is 194/109.

B4: the “Guava HepG2 Screen” value is 131/95.
